Experiment: yeast display, Sf9 membrane polyspecificity reagent, FACS + sequencing; frameworks hold sequencing errors
Outline: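 A nanobody's polyreactivity label depends on the gate it was sorted from. Yeast display cells were stained with 10% biotinylated, detergent-solubilized Sf9 membrane reagent for 1 hour at 4 °C, enriched on streptavidin microbeads and sorted by FACS. The low and high (top ~1%) gates were set on anti-HA fluorescence for expression and streptavidin fluorescence for reagent binding.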

Row | Sequence | polyreactivity (PSR sort gate)
1 | QVQLVESGGGLVQAGRSLRLSCAASGSTFWFYAMGWYRQAPGKERELVASINSGGSTYYADSVKGRFTISRDNAKNTVYLQMNSLKPEDTAVFYCAADAYSWWGRWERYPYTTMYYWGQGTQVTVSS | low polyreactivity
2 | QVQLVESGGGLVQAGRSLRLSCAASGSTFYYYTMGWYRQEPGKERELVAAISFIGGSTYYADSVKGRFTISRDNAKNTVYLQMNSLKPEDTAVYYCAAESYPLSYSSATLSPSYEYWGQGTQVTVSS | low polyreactivity
3 | QVQLVESGGGLVQAGRSLRLSCAASGSTLQDNAMGWYRQAPGKERELVAAITLNGGSTYYADSVKRRFTISRDHAKNTVYLPMNSLKPEDTAVYYCAAEYLYVGYWFDYWGQGTQVTVSS | high polyreactivity
4 | QVQLVESGGGLVQAGRSLRLSCAASGSTYSLDAMGWYRQAPGKERELVAAISWSDGSTYYADSVKGRFTISRDNAKNTVYLLMNSLKPEDTAVYYCGADSTVRPYVHSGDYWGQCTQVTVSS | low polyreactivity
5 | QVQLVESGGGLVQAGRSLRLSCAASGYTFSRYTMGWYRQAPGKEWELVAAISSSGGSTYADSVKGRFTISRDNAKNTVYLQMTSLKPEDTGVYYCNRYYRRATKVGDWGQGTQVTVSS | high polyreactivity
6 | QVQLVESGGGLVQAGRSLRLSCAASGYTIRYYAMGWYRQAPGKERELVAAITNRGGTYYADSVKGRFTISRDNAKNTVYLQLNSLKPEDNAVYYCAARYYWIDFKFGGPRDYWGQGTQVTVSS | high polyreactivity
7 | QVQLVESGGGLVQAGRSLRLSCAASVYILYHNAMGWYRQAPGKERELVAAISYSGGRTYYADSVKGRFTISRDNAKNTVYLQMNSLKPEDTSVYYCNALSVWRTGRGQEFDYWGQGTQVTVSS | high polyreactivity
8 | QVQLVESGGGLVQAGRSLRLSCASSGRIFWDYAMGWYRQAPGKERELVAAISWGSGRTYYADSVKGRFTISRDNAKNTVYLQMNSLKPADSAVDYCAARSSYRKMDYWGQGTQVTVSS | high polyreactivity
9 | QVQLVESGGGLVQAGRSLRLSFADSGVIVTSNAMGWYRQAPGKEREFVADITSSDSTYYADSVKGRFTISRDNAKNTVYLQMNSLKPEDTAVYYCAARGTTVRAYGYGFGYWGQGTQVTVSS | low polyreactivity
10 | QVQLVESGGGLVQAGRSLRLSSAASGNTFAGNAMGWYRQAPGKERELVAAISWSGTRTYYADSVKGRFTISRDNAKNTVYLQMNSLKPEDTAVYYCAKLSTNKEYYWGQGTQVTVSS | high polyreactivity
11 | QVQLVESGGGLVQAGRSLRLTCAASGIIFIGNAMGWYRQATGKERELVAAISRRGGRTYYADSVKGRFTISRDNAKNTVYLQMFSLKPEDTAVYSCNAEITVNDDDYWGQGTQVTVSS | high polyreactivity
12 | QVQLVESGGGLVQAGRSLRLTCAASGRIFRRYAMGWSRQAPGKERELVAAIRTSGGNTYYADSVKGRFTISRDNAKNTVYLQMNSLKPEDTAVYYCAAERGRLVAIASDYWGQGTQVTVSS | high polyreactivity
13 | QVQLVESGGGLVQAGRSLRLTCAASGRTLGYNAMGWYRQPPGKERELVAAITYSGSRTYYADSVKGRFTISRDNAKNTVYLQMNSLKPEDTAVYYCAAGGYIAYYYYRFDYWGQGTQVTVSS | high polyreactivity
14 | QVQLVESGGGLVQAGRSLRLTCAASGSTFSIYVMGWYRQAPGKERELVAAITWSDGIKYYADSVKGRFTISRDNAKNTVYLQMNSLKRDDTAVYYCRDSHPSYRPGTVRYDYLGQGTQVTVSS | low polyreactivity
15 | QVQLVESGGGLVQAGSSLRLSCAASGRIFGYYAMGWYRQAPGKEREFVASITYSGGRTYYADSVKGRFTISRDNAKNTVYLQMNSLKPEDTAVYYCAKRQSFLGVSYDYWGQGTQVTVSS | high polyreactivity
16 | QVQLVESGGGLVQAGVILRLSCAASGRIFIPYAMGWYIQAPGKERELVAAISYRGGSTYYADSVKGRFTISRDNAKNTVYLQMNSLKPEDTAVYYCANYDYWGQGTQVTVSS | high polyreactivity
17 | QVQLVESGGGLVQAGVRLRLSCPASGITFEGYAMGWYRKAPGKERELVAAIRSSGTSTYYADSVKGRFTISRDNAKNTVYLQMNSLKPEDTAVYYCNRARSSSRYDYWGQGTKVTVSS | low polyreactivity
18 | QVQLVESGGGLVQAGVSLRIRCAASGSIFFFNAMGWYRQAPGKEREFVAAITSSSGRTYYAYSVKVRFTISRDNAKNTVYLQMKSLKPEDTAVYYCAAQVPEDNETVDYWGQGTQVTVSS | low polyreactivity
19 | QVQLVESGGGLVQAGVSLRLICAASGRIFALNTMGWYRQAPGKEREFVAAITTSGGSTYADSVKGRFTISRDNAKNTVYFQMNSLKPEYTAVYYFNKEYFHNWAPTYDYWGQGTQVTVSS | low polyreactivity
20 | QVQLVESGGGLVQAGVSLRLSCAASGFIFPYYAMGWYRQAPGKERELVAAITRGGRTYYADSVKGRFTISRDNAKNTVYLQMNSLKPEDTAVYYCAARSVGKRGYDYWGLGTQVTVSS | high polyreactivity
21 | QVQLVESGGGLVQAGVSLRLSCAASGFIIYGNAMGWYRQAPGKERELVAAINQTGSSTYADSVKGRFTISRDNAKNTVYLQMNSLKPEATAVYYCNKGSWYFFLYDYWGQGTQVTVSS | low polyreactivity

Row | Sequence | polyreactivity (PSR sort gate)
22 | QVQLVESGGGLVQAGVSLRLSCAASGFTFDYYAMGWYRQAPGKERELVAAISWSGGSTYYADSVKGRFTISRDNAKNTVFLQMNSLKPEDTAVYYCAGGRPNPRGRGLAYDFWVQGTQVTVSS | high polyreactivity
23 | QVQLVESGGGLVQAGVSLRLSCAASGFTFWRNAMGWYRQAPGKERELVAAISASGGSTYYADSVKGRFTISRDNAKNTVYLQMNSLKPEDTAVYYCAADTQGFYRYDYWGQGTQVTVSS | low polyreactivity
24 | QVQLVESGGGLVQAGVSLRLSCAASGITFPYYTMGCYRQAPGKERELVAAITSGGSTNYADSVKGRFTISRDNAKNTVYLQMNSLKPEDTAVYYCDGVLWLFDYWGQGTQVTVSS | high polyreactivity
25 | QVQLVESGGGLVQAGVSLRLSCAASGRIFAVNAMGWYRQAPGKERELVASIRWSGGSTYYADSVKGRFTISRDYAKNTVYLQMNSLKPEETAVYYCAAVIYLWGQGTQVTVSS | high polyreactivity
26 | QVQLVESGGGLVQAGVSLRLSCAASGRTFFYNAMGWYRQAPGKERELVAAISSGGGYTYYADSVKGRFTISRDNAKNTVYLQMNSLKPEDTAVYYCAAASYRQPGYGYWGQGTQVTVSS | high polyreactivity
27 | QVQLVESGGGLVQAGVSLRLSCAASGRTFGQYVMGWYRQAPGKERELVAAIRSGGSTYYADSVKGLFTISRDNAKNTVYIQLNSLKPEDTAVYYCNADSGPIDGRGGYWGQGTQVTVSS | low polyreactivity
28 | QVQLVESGGGLVQAGVSLRLSCAASGRTFSSYAMGWYRQAPRKERELVPGISWRGGRTYYADSVKGRFTISRDNGKNSVYLQMNSLKREDTAVYYCNKVYRTYYGDYRFSGIPRYDYVGQGTQVTVSS | high polyreactivity
29 | QVQLVESGGGLVQAGVSLRLSCAASGRTFYRYVMGWYRQAPGKERELVAAITPGGSTYADSVKGRFTISRDNAKNTVYLQMNSLKPEDTAVYFCNKRKASSSGYNYWGQGTQVTVSS | low polyreactivity
30 | QVQLVESGGGLVQAGVSLRLSCAASGRTSAYSAMGWYRQAPGKERQLVAGITRGGRTNYADSVKGRFTISRDNAKNTVYLQMHSLKPEDTAVYYCAAKYGYYWNSRTSGYWGQGTQVTVSS | high polyreactivity
31 | QVQLVESGGGLVQAGVSLRLSCAASGSFFGYYTMGWYRQAPGTERELVAAISASGGSTYYADSVKGRFTISRDNANNTVYLQLNSLKPEDTAVYYCAATSAANFPRGYYYWGQGTQVTVSS | high polyreactivity
32 | QVQLVESGGGLVQAGVSLRLSCAASGSIFFYNARGWYRQAPRKERELVAAITTRGGSTYYADSVKGRFTISRDNAQNYVYLQMNSLKPEDTAVSYCARSSRGKLDYWGQGTQVTVSS | low polyreactivity
33 | QVQLVESGGGLVQAGVSLRLSCAASGSIFGYYAMGWYRQAPGKERELVAAINYSGVSTYYADSVKGRFTISRDNAKNTVYLQMNSLKPDDTAVYYCAAKGRKSVYSRNSWGQGTQVTVSS | high polyreactivity
34 | QVQLVESGGGLVQAGVSLRLSCAASGSIFQTYDMGWYRQAPGKERELVAAITGSGDSTYYADSVKGRFTISRDNAKNTVYLQMNSLKPEDTAVYYCNADGPSTPWVEYGYWGQGTQVTVSS | low polyreactivity
35 | QVQLVESGGGLVQAGVSLRLSCAASGSIFVYNAMGWYRQAPGKERELVAAISSSGTRTYYADSVKARFTISRDNAKNTVYLQMNSLKPEDTAVYYCAAYYVPWGTLYHLDYWGQGTQVTVSS | high polyreactivity
36 | QVQLVESGGGLVQAGVSLRLSCAASGSTFSNYAMGWYRQAPGKERELVAGIDWSGGSTYYADSVKGRFTISRDNEKITVYLQMNSLKPEDTAVYYCAKRVWYHGRKLRGYYWGQGTQVTVSS | low polyreactivity
37 | QVQLVESGGGLVQAGVSLRLSCAASGSTFYYYAMGWYRQAPGKERELVATISSGSSTNYADSVKGRFTISRDNAKNTVYLQMNSLKPEDTAVYYCAADRWYITLSIDATISYDYWGQGTQVTVSS | low polyreactivity
38 | QVQLVESGGGLVQAGVSLRLSCAASGSTLISNTMGWNRQAPWKERELVAAITRTGGRTYYADSVKGRFTSSRDTAKNTVDLPMNSLKPEDTAVYYCARYGGYLSLKYDYWGQGTQVTVAS | high polyreactivity
39 | QVQLVESGGGLVQAGVSLRLSCAASGVNAMGWYRQAPGKEREFVAAITSIGGSTYYADSVKGRFTISRDNAKNTVYLQMNSLKPEDTAVYYCNTDRGPVKVSPLYESWGQGTQVTVSS | low polyreactivity
40 | QVQLVESGGGLVQAGVSLRLSCHASGSIFYYNTMGWYRQSPGKERELVATISSDGGTNYADSVKGRFTISRDNAKYTVYLQMNSLKPEDTAVYYCAKDGSNRLALPAWDYNYWGQGTQVTVSS | low polyreactivity
41 | QVQLVESGGGLVQARGSLLLSSAASGLIFQTYTMGWYRQAPGKERELVAAITSSGGRTYYADSVKGRFTISRDNAKNSVFLQKNSLKPEDTAVYYCAARRPPSAGMGYWGQGTQVTVSS | high polyreactivity

Source: the nanobody polyreactivity screen of Harvey et al. (2022)
